The target of experiment [1] is T1, GFP-His6 (eGFP) (Aequorea victoria, UniProt P42212 2-238 = GFP).
T1 construct: SPR and bead assays speak only of recombinant GFP or eGFP; also called recombinant GFP; A. victoria (Av) GFP
The experiment in a line: SPR, GFP immobilized, Langmuir fit; unit inferred. For orientation: In SPR one partner is held on a chip, and binding of the other changes the refractive index at the surface.

Experiment [2] deals with T1, GFP-His6 (eGFP). The experiment in a line: SPR, GFP immobilized.
In a further experiment the target is T2, DsRed (Discosoma sp., UniProt Q9U6Y8 1-225).
T2 construct: Recombinant fluorescent protein; construct not described; also called standard DsRed; DsRed from Discosoma (Ds)
In words: bead binding: nanobody-Dynabeads + fluorescent protein, eluate on SDS-PAGE.

The target of experiment [3] is T1, GFP-His6 (eGFP). In words: SPR, GFP immobilized, Langmuir fit; no unit printed [continued].
Experiment [4] has as its target T1, GFP-His6 (eGFP). The description is as above. The source holds these as a separate data set.
Experiment [5] addresses T1, GFP-His6 (eGFP). The experiment in a line: label under gel lane; legend: in vitro Kd for GFP by SPR.
Experiment [6] addresses T1, GFP-His6 (eGFP). The experiment in a line: bead binding assay (footnote 1).
Experiment [7] deals with T3, mCherry (Discosoma).
T3 construct: Immunogen is mCherry-His6; SPR says recombinant mCherry; also called recombinant mCherry-His6; Discosoma mCherry
In words: SPR, mCherry immobilized, Langmuir fit; unit inferred.

The target in experiment [8] is T3, mCherry. In words: label under gel lane; legend: in vitro Kd for mCherry by SPR.
The target of experiment [9] is T1, GFP-His6 (eGFP). The experiment in a line: bead binding: nanobody-Dynabeads + fluorescent protein, eluate on SDS-PAGE.
The target of experiment [10] is T3, mCherry. In words: SPR, mCherry immobilized.

Consider 18 molecules from patent publication US20170212130A1 (ROCKEFELLER UNIVERSITY, published 2017).

T2 sequence (Q9U6Y8 whole entry): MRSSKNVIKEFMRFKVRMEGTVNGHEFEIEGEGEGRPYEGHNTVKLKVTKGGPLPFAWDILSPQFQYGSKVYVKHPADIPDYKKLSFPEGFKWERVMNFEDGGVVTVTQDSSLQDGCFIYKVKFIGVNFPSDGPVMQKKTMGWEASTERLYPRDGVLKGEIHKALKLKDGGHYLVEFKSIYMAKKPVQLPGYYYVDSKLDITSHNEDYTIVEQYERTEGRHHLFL

B1: LaG-3 (VHH)
VHH: QVQLVESGGGLVQAGGSLRVSCAASGRTYSDYAMGWFRQAPGKERDFVAGISGSGGDTYYADSVKGRFTISRDNAKNTMYLQMNSLKPEDTAVYFCAARTGTVLFTSRVDYRYWGQGTQVTV
In general, Kd refers to the concentration at which binding is half-saturated. Higher therefore signals lower affinity. For B1, the Kd with GFP-His6 (eGFP) [1] and with GFP-His6 (eGFP) [2] was 25 nM in each case. In addition, in the experiment with DsRed, the binding result was “no binding”.

B2: LaG-16 (VHH)
VHH: QVQLVESGGRLVQAGDSLRLSCAASGRTFSTSAMAWFRQAPGREREFVAAITWTVGNTILGDSVKGRFTISRDRAKNTVDLQMDNLEPEDTAVYYCSARSRGYVLSVLRSVDSYDYWGQGTQVTVS
modifications: Conjugated to Alexa Fluor 568 (succinimidyl ester, on amines) in the microscopy result. The letters are unchanged.
notes: Conjugated to Alexa Fluor 568 for microscopy
As to B2, the equilibrium dissociation constant (Kd) was 0.69 nM in the experiment with GFP-His6 (eGFP) [1] and 0.7 nM with GFP-His6 (eGFP) [2]. Besides, the binding result with DsRed is “no binding”.

B3: LaG16-LaG2 (3xFLAG) (other)
single-chain fusion of two VHH (part 1 of 2): MAQVQLVESGGRLVQAGDSLRLSCAASGRTFSTSAMAWFRQAPGREREFVAAITWTVGNTILGDSVKGRFTISRDRAKNTVDLQMDNLEPEDTAVYYCSARSRGYVLSVLRSVDSYDYWGQGTQVTVS
single-chain fusion of two VHH (part 2 of 2): MAQVQLVESGGGLVQAGGSLRLSCAASGRTFSNYAMGWFRQAPGKEREFVAAISWTGVSTYYADSVKGRFTISRDNDKNTVYVQMNSLIPEDTAIYYCAAVRARSFSDTYSRVNEYDYWGQGTQVTV
notes: Member of the group m24; also called LaG16-LaG2 3xFLAG Dimer
As to B3, the Kd in the experiment with GFP-His6 (eGFP) [3] came to 0.27 nM; with GFP-His6 (eGFP) [2], 0.268 nM.

B4: LaG-37 (VHH)
VHH: QVQFVESGGGTVQDGDFLRLSCTASGDTFSNYHAGWFRQPPGREREFVAAISWTGEGTLYADSVKGQFTISRDNAKNAMYLQMNRLKPEDTAVYYCAAARSVGFTWRSSKSNDYAYWGQGTQVTV
B4: the dissociation constant (Kd) in the experiment with GFP-His6 (eGFP) [2] turned out to be 24 nM; in the experiment with GFP-His6 (eGFP) [4], 24 nM; with GFP-His6 (eGFP) [5], 25 nM.

B5: LaG-14 (VHH)
VHH: QVQLVESGGGLVQAGGSLRLSCAASGRTYSISAMGWFRQAPGKEREFVAGISRSGGTTYYADPVKGRFTISRDNAKNTVYLQMNSLKPEDTAVYYCAARARGWTTFPAREIEYDYWGQGTQVTV
In the case of B5, the equilibrium dissociation constant (Kd) with GFP-His6 (eGFP) [1] and with GFP-His6 (eGFP) [2] was 1.9 nM in each case. In addition, the binding result with DsRed is given as “no binding”.

B6: LaG-6 (VHH)
VHH: QVQLVESGGGLVQAGGSLRLSCAASGRTFSTSAMAWFRQAPGKEREFAAGITWISSSTYYTDSVKGRFTISRDNAKNTVYLQMNSLKPEDTAVYYCAAKSEGYFGFPRVENEYPYWGQGTQVTV
Take B6: the Kd in the experiment with GFP-His6 (eGFP) [1] and with GFP-His6 (eGFP) [2] was 310 nM in each case.

B7: LaG-26 (VHH)
VHH: QVQLVESGGGLVQAGASMRLSCAASGITFSLYHWVWFRQAAGREHEFVAGIIRSGGETLSADSVKDRFIISRDDAKNTLYLQMNMLQPEDTATYYCAATHRADWYSSAFREYIFRGQGTQVTVS
For the molecule B7, the Kd in the experiment with GFP-His6 (eGFP) [2] and with GFP-His6 (eGFP) [4] was 2.6 nM each time. Further, in the experiment with DsRed, the binding result is listed as “no binding”.

B8: LaG-19 (VHH)
VHH: QVQLVESGGGLVQAGGSLRLSCAASGPTGAMAWFRQAPGKEREFVGGISRSGTDTYYVDSVKGRFTIDRDNAKNTVYLQMNSLKPEDTAVYYCAARRSQILFTSRTDYEFWGQGTQVTVS
On to B8, for which, in the experiment with GFP-His6 (eGFP) [6], the affinity, expressed as Kd, was 24.6 nM. In the experiment with DsRed, the binding result was “no binding”.

B9: LaG-17 (VHH)
VHH: DVQLVESGGGLVQAGGSLRLSCAASGRTISMAAMSWFRQAPGKEREFVAGISRSAGSAVHADSVKGRFTISRDNTKNTLYLQMNSLKAEDTAVYYCAVRTSGFFGSIPRTGTAFDYWGQGTQVTVS
In the experiment with GFP-His6 (eGFP) [1], B9 came in with a Kd of 48 nM. The binding result with DsRed was “no binding”.

B10: LaG-10 (VHH)
VHH: QVQLVESGGGLVQAGDSLQLSCAFSGGTFSTYAMGWFRQAPGKEREFVGGISRSGATTNYEDSVKGRFTISKDNTKNTVYLQLNSLKPEDTAVYYCAARNNILPVTTIDKYEYWGQGTQVTV
For B10, the Kd in the experiment with GFP-His6 (eGFP) [1] and with GFP-His6 (eGFP) [2] was 97 nM in each case.

B11: LaG-11 (VHH)
VHH: DVQLVESGGRSVRAGDSLRLSCLASGGTFSLYAMGWFRQAPGKEREFVAAVTWSGGSTYYTDSVKGRFSISRDNAKNTVYLQMNSLKPEDTAVYYCAVRTSGFFGSIPVTERAFDYWGQGTQVTVS
As for B11, the dissociation constant Kd with GFP-His6 (eGFP) [6] and in the experiment with GFP-His6 (eGFP) [5] was 22900 nM throughout.

B12: LaG-21 (VHH)
VHH: QVQLVESGGGLVQAGGSLRLSCAASGPTGAMAWFRQAPGMEREFVGGISGSETDTYYADFVKGRLTVDRDNVKNTVDLQMNSLKPEDTAVYYCAARRRVTLFTSRADYDFWGQGTQVTVS
Molecule B12 registered a dissociation constant Kd with GFP-His6 (eGFP) [2] of 7 nM. In addition, the binding result with DsRed is reported as “no binding”.

B13: LaG-35 (VHH)
VHH: DVQLVESGGGLVQAGGSLRLSCTVSGRTFSNYAMGWFRQAPGKEREFVAGISWTGGHTLYTDSVKGRFTISRDNAKNTVYLQMNSLKPEDTALYYCAADRAADFFAQRDEYDYWGQGTQVTVS
In the case of B13, the figures for the Kd in the experiment with GFP-His6 (eGFP) [6] and with GFP-His6 (eGFP) [5] were 23.5 nM and 24 nM, respectively.

B14: LaG-27 (VHH)
VHH: DVQLVESGGGLVQAGGSLRLSCTASGLTISTYNIGWFRQAPGKEREFVGIIIRNGDTTYYADSVKGRFTISRDNAKNTVYLQMNSVKPADAAVYSCGATVRAGAAAEQYNSYIFRGQGTQVTV
As for B14, the Kd with GFP-His6 (eGFP) [2] and in the experiment with GFP-His6 (eGFP) [4] was 9.5 nM in each case. Moreover, in the experiment with DsRed, the binding result is listed as “no binding”.

B15: LaG-30 (VHH)
VHH: QVQLVESGGGLVQAGGSLRLSCAASGRTFSTSAMGWFRQAPGREREFVAAITWTVGNTIYGDSMKGRFTISRDRTKNTVDLQMDSLKPEDTAVYYCTARSRGFVLSDLRSVDSFDYKGQGTQVTVS
For the molecule B15, the dissociation constant Kd with GFP-His6 (eGFP) [2] and with GFP-His6 (eGFP) [4] was 0.5 nM throughout. For the same molecule, in the experiment with DsRed, the binding result was “no binding”.

B16: LaM-3 (VHH)
VHH: QVQLVQSGGGLVQAGGSLRLSCAASGRTFSDIAVGWFRQTPGKEREFVAAISWSGLIINYGDSVEDRFTISRDNAKSAVYLQMNSLKPEDTAVYYCAARIGMNYYYAREIEYPYWGQGTQVTVS
For B16, the Kd with mCherry [7], with mCherry [8] and in the experiment with mCherry [10] was 1.9 nM each time. Besides, the binding result in the experiment with GFP-His6 (eGFP) [9] is given as “no binding”.

B17: LaG-29 (VHH)
VHH: QVQLVESGGGLVQAGAALRLSCAASGGTFSFYNMGWFRQAPGKEREFVVSISRSGGGTAYADSVKGRFTISRDNAKNTAYLQMNSLKPEDTAVYYCAAGLRDWGREGEPHYWGQGTQVTVS
B17: the dissociation constant Kd with GFP-His6 (eGFP) [2] and with GFP-His6 (eGFP) [4] was 110 nM throughout.

B18: LaG-42 (VHH)
VHH: DVQLVESGGGLVQAGDSLRLSCAASGPTGAMAWFHQGLGKEREFVGGISPSGDNIYYADSVKGRFTIDRDNAKNTVSLQMNSLKPEDMGVYYCAARRRVTLFTSRTDYEFWGRGTQVTVS
In the experiment with GFP-His6 (eGFP) [2], B18 displayed a Kd of 600 nM.
